Data published in paper PMC8635433 (2021).

T1: coxsackie and adenovirus receptor (CAR), immobilised for SPR (UniProt P78310 20-365)
T1 chain: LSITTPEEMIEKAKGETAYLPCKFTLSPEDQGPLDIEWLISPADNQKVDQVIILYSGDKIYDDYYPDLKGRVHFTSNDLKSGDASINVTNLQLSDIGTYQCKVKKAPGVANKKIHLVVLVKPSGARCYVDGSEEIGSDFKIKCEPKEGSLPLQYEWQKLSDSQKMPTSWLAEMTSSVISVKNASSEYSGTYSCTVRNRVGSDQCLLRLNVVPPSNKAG

T2: CD46, immobilised for SPR (UniProt P15529 35-392)
T2 chain: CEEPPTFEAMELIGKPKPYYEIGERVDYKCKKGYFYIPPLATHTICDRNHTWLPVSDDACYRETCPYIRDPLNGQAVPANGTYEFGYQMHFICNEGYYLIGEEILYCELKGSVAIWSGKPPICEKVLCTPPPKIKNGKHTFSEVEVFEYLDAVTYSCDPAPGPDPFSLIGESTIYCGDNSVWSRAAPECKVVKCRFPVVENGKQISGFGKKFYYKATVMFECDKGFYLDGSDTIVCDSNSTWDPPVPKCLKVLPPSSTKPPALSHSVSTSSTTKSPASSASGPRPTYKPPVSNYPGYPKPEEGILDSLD

B1: ChAdOx1 fiber knob protein (domain or fragment)
chain: GALTAGNKEDDKLTLWTTPDPSPNCQLLSDRDAKFTLCLTKCGSQILGTVAVAAVTVGSALNPINDTVKSAIVFLRFDSDGVLMSNSSMVGDYWNFREGQTTQSVAYTNAVGFMPNLGAYPKTQSKTPKNSIVSQVYLNGETTMPMTLTITFNGTDEKDTTPVSTYSMTFTWQWTGDYKDKNITFATNSFTFSYMAQE
B2: HAdV-C5 fiber knob protein (domain or fragment)
chain: TGAITVGNKNNDKLTLWTTPAPSPNCRLNAEKDAKLTLVLTKCGSQILATVSVLAVKGSLAPISGTVQSAHLIIRFDENGVLLNNSFLDPEYWNFRNGDLTEGTAYTNAVGFMPNLSAYPKSHGKTAKSNIVSQVYLNGDKTKPVTLTITLNGTQETGDTTPSAYSMSFSWDWSGHNYINEIFATSSYTFSYIAQE
B3: HAdV-B35 fiber knob protein (domain or fragment)
chain: FNNGDICIKDSINTLWTGINPPPNCQIVENTNTNDGKLTLVLVKNGGLVNGYVSLVGVSDTVNQMFTQKTANIQLRLYFDSSGNLLTEESDLKIPLKNKSSTATSETVASSKAFMPSTTAYPFNTTTRDSENYIHGICYYMTSYDRSLFPLNISIMLNSRMISSNVAYAIQFEWNLNASESPESNIATLTTSPFFFSYITEDDN

Legend:
Test in all cases: SPR
[1] = target: T1, coxsackie and adenovirus receptor …
[2] = target: T2, CD46, immobilised for SPR
[3] = target: T2, CD46, immobilised for SPR

Binder | koff [1] [s⁻¹] | koff [2] [s⁻¹] | Kd [3] [nM]
B1 | 0.00018 |  | 
B2 | 0.000109 |  | 
B3 |  | 0.000994 | 4.38
